Data: publication PMC9482650, “Quantitative fragmentomics allow affinity mapping of interactomes” (Nature Communications, 2022)

What follows are binders tested against T1, ARHGAP21, Q5T5U3 (assay: holdup assay). Settings: plain residues with an end cap or a label only (N-terminal biotin on a linker: ado-ado).
T1 sequence (Q5T5U3 45-169, limits assumed, looked up): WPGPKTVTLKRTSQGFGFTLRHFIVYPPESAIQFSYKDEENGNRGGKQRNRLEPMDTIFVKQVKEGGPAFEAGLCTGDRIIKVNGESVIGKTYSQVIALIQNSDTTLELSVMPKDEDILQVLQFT
Design: key: below the threshold = too weak to quantify, mostly under pKd 3.1 to 4
AHGSTRDQSI [KCNB1, Q14721] was tested, and the pKd was “below the threshold”. With FLVTEFNVML [DFNB31, Q9P202] the pKd was 4.61.

What follows are binders tested against T2, DFNB31_2, Q9P202 (assay: holdup assay). Settings: plain residues with an end cap or a label only (N-terminal biotin on a linker: ado-ado).
T2 sequence (Q9P202 274-371, limits assumed, looked up): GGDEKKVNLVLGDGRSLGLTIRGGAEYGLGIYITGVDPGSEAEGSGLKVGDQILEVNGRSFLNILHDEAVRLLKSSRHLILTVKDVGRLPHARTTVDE
Design: key: below the threshold = too weak to quantify, mostly under pKd 3.1 to 4
With AHGSTRDQSI [KCNB1, Q14721] the pKd was “below the threshold”. With FLVTEFNVML [DFNB31, Q9P202] the pKd was “below the threshold”.

Each binder was assayed against DLG2_3, Q15700 (assay: holdup assay). Settings: plain residues with an end cap or a label only (N-terminal biotin on a linker: ado-ado).
Design: key: below the threshold = too weak to quantify, mostly under pKd 3.1 to 4
Work on AHGSTRDQSI [KCNB1, Q14721] yielded a pKd of 3.82. For FLVTEFNVML [DFNB31, Q9P202], the pKd was “below the threshold”.

The binders below were run against DLG4_1, P78352 (assay: holdup assay). Settings: plain residues with an end cap or a label only (N-terminal biotin on a linker: ado-ado).
Chain of DLG4_1, P78352 (P78352 62-152): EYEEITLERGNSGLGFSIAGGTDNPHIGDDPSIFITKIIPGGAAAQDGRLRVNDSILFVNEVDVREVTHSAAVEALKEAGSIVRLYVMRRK
Design: key: below the threshold = too weak to quantify, mostly under pKd 3.1 to 4
With AHGSTRDQSI [KCNB1, Q14721] the pKd was “below the threshold”. In the case of FLVTEFNVML [DFNB31, Q9P202], the pKd is reported as “below the threshold”.

The binders below were run against T3, FRMPD1, Q5SYB0 (assay: holdup assay). Settings: plain residues with an end cap or a label only (N-terminal biotin on a linker: ado-ado).
T3 sequence (Q5SYB0 52-145, limits assumed, looked up): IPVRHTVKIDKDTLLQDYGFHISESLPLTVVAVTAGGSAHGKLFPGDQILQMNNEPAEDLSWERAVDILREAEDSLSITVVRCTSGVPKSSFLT
Design: key: below the threshold = too weak to quantify, mostly under pKd 3.1 to 4
In the case of AHGSTRDQSI [KCNB1, Q14721], the pKd is reported as “below the threshold”. For FLVTEFNVML [DFNB31, Q9P202], the pKd was “below the threshold”.

The binders below were run against FRMPD2_2, Q68DX3 (assay: holdup assay). Settings: plain residues with an end cap or a label only (N-terminal biotin on a linker: ado-ado).
Chain of FRMPD2_2, Q68DX3 (Q68DX3 944-1038): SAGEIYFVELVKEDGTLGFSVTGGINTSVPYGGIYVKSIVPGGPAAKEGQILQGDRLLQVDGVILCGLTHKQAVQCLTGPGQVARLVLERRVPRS
Design: key: below the threshold = too weak to quantify, mostly under pKd 3.1 to 4
With AHGSTRDQSI [KCNB1, Q14721] the pKd was “below the threshold”. With FLVTEFNVML [DFNB31, Q9P202] the pKd was “below the threshold”.

Each binder was assayed against GORASP1, Q9BQQ3 (assay: holdup assay). Settings: plain residues with an end cap or a label only (N-terminal biotin on a linker: ado-ado).
Chain of GORASP1, Q9BQQ3 (Q9BQQ3 1-208): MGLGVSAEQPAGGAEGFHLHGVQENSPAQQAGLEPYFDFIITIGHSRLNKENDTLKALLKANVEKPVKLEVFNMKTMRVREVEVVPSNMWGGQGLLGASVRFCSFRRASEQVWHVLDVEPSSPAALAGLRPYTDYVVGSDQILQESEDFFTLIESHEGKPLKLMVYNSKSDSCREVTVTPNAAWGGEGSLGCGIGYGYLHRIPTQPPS
Design: key: below the threshold = too weak to quantify, mostly under pKd 3.1 to 4
AHGSTRDQSI [KCNB1, Q14721] was tested, and the pKd was “below the threshold”. In the case of FLVTEFNVML [DFNB31, Q9P202], the pKd is reported as 4.32.

These binders were tested against GORASP2, Q9H8Y8 (assay: holdup assay). Settings: plain residues with an end cap or a label only (N-terminal biotin on a linker: ado-ado).
Design: key: below the threshold = too weak to quantify, mostly under pKd 3.1 to 4
In the case of AHGSTRDQSI [KCNB1, Q14721], the pKd is reported as 3.67. In the case of FLVTEFNVML [DFNB31, Q9P202], the pKd is reported as “below the threshold”.

What follows are binders tested against GRIP2_6, Q9C0E4 (assay: holdup assay). Settings: plain residues with an end cap or a label only (N-terminal biotin on a linker: ado-ado).
Chain of GRIP2_6, Q9C0E4 (Q9C0E4 648-740): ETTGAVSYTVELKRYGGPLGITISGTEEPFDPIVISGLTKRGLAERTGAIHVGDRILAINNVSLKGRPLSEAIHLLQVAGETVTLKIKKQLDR
Design: key: below the threshold = too weak to quantify, mostly under pKd 3.1 to 4
For AHGSTRDQSI [KCNB1, Q14721], the pKd was “below the threshold”. FLVTEFNVML [DFNB31, Q9P202] was tested, and the pKd was 4.06.

The binders below were run against T4, HTRA3, P83110 (assay: holdup assay). Settings: plain residues with an end cap or a label only (N-terminal biotin on a linker: ado-ado).
T4 sequence (P83110 354-453, limits assumed, looked up): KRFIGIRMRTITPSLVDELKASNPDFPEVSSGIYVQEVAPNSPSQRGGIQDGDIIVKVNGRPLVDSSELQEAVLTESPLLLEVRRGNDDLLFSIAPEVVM
Design: key: below the threshold = too weak to quantify, mostly under pKd 3.1 to 4
In the case of AHGSTRDQSI [KCNB1, Q14721], the pKd is reported as “below the threshold”. For FLVTEFNVML [DFNB31, Q9P202], the pKd was “below the threshold”.

What follows are binders tested against IL16_1, Q14005 (assay: holdup assay). Settings: plain residues with an end cap or a label only (N-terminal biotin on a linker: ado-ado).
Chain of IL16_1, Q14005 (Q14005 210-306): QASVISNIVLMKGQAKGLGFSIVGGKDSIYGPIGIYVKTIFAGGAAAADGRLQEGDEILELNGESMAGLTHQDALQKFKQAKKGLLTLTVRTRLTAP
Design: key: below the threshold = too weak to quantify, mostly under pKd 3.1 to 4
AHGSTRDQSI [KCNB1, Q14721] was tested, and the pKd was “below the threshold”. In the case of FLVTEFNVML [DFNB31, Q9P202], the pKd is reported as “below the threshold”.

Each binder was assayed against Inadl_1, Q8NI35 (assay: holdup assay). Settings: plain residues with an end cap or a label only (N-terminal biotin on a linker: ado-ado).
Chain of Inadl_1, Q8NI35 (Q8NI35 113-229): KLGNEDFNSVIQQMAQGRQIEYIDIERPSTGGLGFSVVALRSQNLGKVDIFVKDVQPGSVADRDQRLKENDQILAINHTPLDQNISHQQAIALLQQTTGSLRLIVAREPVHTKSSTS
Design: key: below the threshold = too weak to quantify, mostly under pKd 3.1 to 4
In the case of AHGSTRDQSI [KCNB1, Q14721], the pKd is reported as “below the threshold”. For FLVTEFNVML [DFNB31, Q9P202], the pKd was “below the threshold”.

Each binder was assayed against Inadl_3, Q8NI35 (assay: holdup assay). Settings: plain residues with an end cap or a label only (N-terminal biotin on a linker: ado-ado).
Chain of Inadl_3, Q8NI35 (Q8NI35 359-469): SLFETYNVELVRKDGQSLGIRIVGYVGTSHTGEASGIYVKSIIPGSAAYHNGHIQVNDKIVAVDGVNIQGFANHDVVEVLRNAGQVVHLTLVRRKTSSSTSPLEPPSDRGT
Design: key: below the threshold = too weak to quantify, mostly under pKd 3.1 to 4
With AHGSTRDQSI [KCNB1, Q14721] the pKd was “below the threshold”. FLVTEFNVML [DFNB31, Q9P202] gave a pKd of 4.73.

These binders were tested against Inadl_4, Q8NI35 (assay: holdup assay). Settings: plain residues with an end cap or a label only (N-terminal biotin on a linker: ado-ado).
Chain of Inadl_4, Q8NI35 (Q8NI35 547-651): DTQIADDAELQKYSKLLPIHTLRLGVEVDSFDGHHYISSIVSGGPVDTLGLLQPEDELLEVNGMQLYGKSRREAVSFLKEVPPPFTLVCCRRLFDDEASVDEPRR
Design: key: below the threshold = too weak to quantify, mostly under pKd 3.1 to 4
In the case of AHGSTRDQSI [KCNB1, Q14721], the pKd is reported as “below the threshold”. With FLVTEFNVML [DFNB31, Q9P202] the pKd was “below the threshold”.

These binders were tested against T5, LRRC7, Q96NW7 (assay: holdup assay). Settings: plain residues with an end cap or a label only (N-terminal biotin on a linker: ado-ado).
T5 sequence (Q96NW7 1440-1537, limits assumed, looked up): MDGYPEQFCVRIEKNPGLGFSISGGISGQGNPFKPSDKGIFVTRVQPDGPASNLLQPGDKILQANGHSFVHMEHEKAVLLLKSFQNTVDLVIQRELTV
Design: key: below the threshold = too weak to quantify, mostly under pKd 3.1 to 4
AHGSTRDQSI [KCNB1, Q14721] was tested, and the pKd was “below the threshold”. FLVTEFNVML [DFNB31, Q9P202] showed a pKd of 3.64.

Each binder was assayed against T6, MPDZ_10, O75970 (assay: holdup assay). Settings: plain residues with an end cap or a label only (N-terminal biotin on a linker: ado-ado).
T6 sequence (O75970 1624-1722, limits assumed, looked up): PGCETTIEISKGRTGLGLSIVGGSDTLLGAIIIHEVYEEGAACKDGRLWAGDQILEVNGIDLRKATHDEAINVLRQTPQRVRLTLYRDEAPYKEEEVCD
Design: key: below the threshold = too weak to quantify, mostly under pKd 3.1 to 4
For AHGSTRDQSI [KCNB1, Q14721], the pKd was “below the threshold”. FLVTEFNVML [DFNB31, Q9P202] was tested, and the pKd was “below the threshold”.

The binders below were run against T7, MPDZ_5, O75970 (assay: holdup assay). Settings: plain residues with an end cap or a label only (N-terminal biotin on a linker: ado-ado).
T7 sequence (O75970 695-796, limits assumed, looked up): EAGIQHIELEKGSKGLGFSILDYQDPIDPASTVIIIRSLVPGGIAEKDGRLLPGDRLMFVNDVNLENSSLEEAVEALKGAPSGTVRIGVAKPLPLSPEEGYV
Design: key: below the threshold = too weak to quantify, mostly under pKd 3.1 to 4
With AHGSTRDQSI [KCNB1, Q14721] the pKd was “below the threshold”. In the case of FLVTEFNVML [DFNB31, Q9P202], the pKd is reported as “below the threshold”.

These binders were tested against T8, MPP7, Q5T2T1 (assay: holdup assay). Settings: plain residues with an end cap or a label only (N-terminal biotin on a linker: ado-ado).
T8 sequence (Q5T2T1 134-230, limits assumed, looked up): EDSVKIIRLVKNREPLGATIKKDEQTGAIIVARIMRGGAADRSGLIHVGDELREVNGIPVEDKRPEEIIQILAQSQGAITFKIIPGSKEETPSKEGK
Design: key: below the threshold = too weak to quantify, mostly under pKd 3.1 to 4
For AHGSTRDQSI [KCNB1, Q14721], the pKd was “below the threshold”. For FLVTEFNVML [DFNB31, Q9P202], the pKd was “below the threshold”.

These binders were tested against NHERF4_1, Q86UT5-2 (assay: holdup assay). Settings: plain residues with an end cap or a label only (N-terminal biotin on a linker: ado-ado).
Chain of NHERF4_1, Q86UT5-2 (Q86UT5 other isoform, or with tags, fused parts or gaps): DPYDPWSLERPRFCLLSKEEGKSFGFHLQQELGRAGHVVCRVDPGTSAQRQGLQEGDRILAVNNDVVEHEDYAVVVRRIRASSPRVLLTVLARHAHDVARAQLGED
Design: key: below the threshold = too weak to quantify, mostly under pKd 3.1 to 4
AHGSTRDQSI [KCNB1, Q14721] was tested, and the pKd was 3.54. FLVTEFNVML [DFNB31, Q9P202] was tested, and the pKd was 3.9.

What follows are binders tested against NHERF4_4, Q86UT5 (assay: holdup assay). Settings: plain residues with an end cap or a label only (N-terminal biotin on a linker: ado-ado).
Chain of NHERF4_4, Q86UT5 (Q86UT5 464-550): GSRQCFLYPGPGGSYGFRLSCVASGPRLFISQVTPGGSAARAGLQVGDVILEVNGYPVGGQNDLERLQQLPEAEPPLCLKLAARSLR
Design: key: below the threshold = too weak to quantify, mostly under pKd 3.1 to 4
With AHGSTRDQSI [KCNB1, Q14721] the pKd was 4.01. For FLVTEFNVML [DFNB31, Q9P202], the pKd was 4.84.

Each binder was assayed against PDLIM1, O00151 (assay: holdup assay). Settings: plain residues with an end cap or a label only (N-terminal biotin on a linker: ado-ado).
Chain of PDLIM1, O00151 (O00151 1-87): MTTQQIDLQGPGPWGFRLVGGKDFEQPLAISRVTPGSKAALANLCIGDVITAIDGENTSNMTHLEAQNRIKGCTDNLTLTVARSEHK
Design: key: below the threshold = too weak to quantify, mostly under pKd 3.1 to 4
AHGSTRDQSI [KCNB1, Q14721] was tested, and the pKd was “below the threshold”. FLVTEFNVML [DFNB31, Q9P202] was tested, and the pKd was 3.75.

These binders were tested against T9, PDZRN3_1, Q9UPQ7 (assay: holdup assay). Settings: plain residues with an end cap or a label only (N-terminal biotin on a linker: ado-ado).
T9 sequence (Q9UPQ7 244-349, limits assumed, looked up): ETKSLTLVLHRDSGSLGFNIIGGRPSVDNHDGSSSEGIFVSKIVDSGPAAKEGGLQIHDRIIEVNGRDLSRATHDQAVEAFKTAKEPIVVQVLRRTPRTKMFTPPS
Design: key: below the threshold = too weak to quantify, mostly under pKd 3.1 to 4
For AHGSTRDQSI [KCNB1, Q14721], the pKd was “below the threshold”. FLVTEFNVML [DFNB31, Q9P202] was tested, and the pKd was “below the threshold”.

What follows are binders tested against T10, RHPN1, Q8TCX5 (assay: holdup assay). Settings: plain residues with an end cap or a label only (N-terminal biotin on a linker: ado-ado).
T10 sequence (Q8TCX5 508-602, limits assumed, looked up): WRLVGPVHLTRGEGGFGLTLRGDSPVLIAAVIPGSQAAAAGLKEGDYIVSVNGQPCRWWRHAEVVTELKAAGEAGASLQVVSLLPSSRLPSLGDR
Design: key: below the threshold = too weak to quantify, mostly under pKd 3.1 to 4
AHGSTRDQSI [KCNB1, Q14721] was tested, and the pKd was “below the threshold”. FLVTEFNVML [DFNB31, Q9P202] was tested, and the pKd was “below the threshold”.

What follows are binders tested against SCRIB_1, Q14160 (assay: holdup assay). Settings: plain residues with an end cap or a label only (N-terminal biotin on a linker: ado-ado).
Chain of SCRIB_1, Q14160 (Q14160 718-814): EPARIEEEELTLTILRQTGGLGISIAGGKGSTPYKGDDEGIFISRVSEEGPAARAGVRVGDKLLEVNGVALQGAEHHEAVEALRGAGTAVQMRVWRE
Design: key: below the threshold = too weak to quantify, mostly under pKd 3.1 to 4
With AHGSTRDQSI [KCNB1, Q14721] the pKd was “below the threshold”. For FLVTEFNVML [DFNB31, Q9P202], the pKd was 3.86.

These binders were tested against SCRIB_3, Q14160 (assay: holdup assay). Settings: plain residues with an end cap or a label only (N-terminal biotin on a linker: ado-ado).
Chain of SCRIB_3, Q14160 (Q14160 999-1103): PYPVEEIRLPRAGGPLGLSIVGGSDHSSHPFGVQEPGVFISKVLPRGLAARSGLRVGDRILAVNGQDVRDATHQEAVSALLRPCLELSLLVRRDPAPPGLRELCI
Design: key: below the threshold = too weak to quantify, mostly under pKd 3.1 to 4
AHGSTRDQSI [KCNB1, Q14721] was tested, and the pKd was “below the threshold”. FLVTEFNVML [DFNB31, Q9P202] showed a pKd of 4.12.

Each binder was assayed against T11, SNTB1, Q13884 (assay: holdup assay). Settings: plain residues with an end cap or a label only (N-terminal biotin on a linker: ado-ado).
T11 sequence (Q13884 107-205, limits assumed, looked up): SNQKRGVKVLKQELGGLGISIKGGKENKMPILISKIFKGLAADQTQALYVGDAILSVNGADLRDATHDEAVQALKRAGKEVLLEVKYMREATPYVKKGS
Design: key: below the threshold = too weak to quantify, mostly under pKd 3.1 to 4
With AHGSTRDQSI [KCNB1, Q14721] the pKd was “below the threshold”. With FLVTEFNVML [DFNB31, Q9P202] the pKd was “below the threshold”.

These binders were tested against TJP1_2, Q07157 (assay: holdup assay). Settings: plain residues with an end cap or a label only (N-terminal biotin on a linker: ado-ado).
Chain of TJP1_2, Q07157 (Q07157 181-274): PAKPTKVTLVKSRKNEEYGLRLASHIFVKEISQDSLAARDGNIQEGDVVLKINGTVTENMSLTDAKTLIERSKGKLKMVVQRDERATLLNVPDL
Design: key: below the threshold = too weak to quantify, mostly under pKd 3.1 to 4
AHGSTRDQSI [KCNB1, Q14721] was tested, and the pKd was “below the threshold”. For FLVTEFNVML [DFNB31, Q9P202], the pKd was “below the threshold”.
